Measured values published in PMC7718890, “High-throughput screening to discover inhibitors of the CarD·RNA polymerase protein–protein interaction in Mycobacterium tuberculosis” (Scientific Reports, 2020).

How the values were obtained:
[1] = biological target: Mycobacterium tuberculosis RNA polymerase, wild type (Mycobacterium tuberculosis) (UniProt P9WGY9); assay: fluorescence polarisation
[2] = biological target: CarD T8C labelled with BODIPY-FL (Mycobacterium tuberculosis) (UniProt P9WJG3); assay: fluorescence polarisation

| Substance | Ki [1] | Kd [2] |
| --- | --- | --- |
| Wild-type MTB CarD, unlabeled (from UniProt P9WJG3 1-162) (natural protein) | 8 nM |  |
| Mycobacterium tuberculosis RNA polymerase, wild type (from UniProt P9WGY9 8-1140) (complex) |  | 65 nM |
